T1: human IL-23R-mouse Fc fusion protein (human; mouse, UniProt Q5VWK5 24-353)
T1 construct: Expressed in FreeStyle 293 cells, purified; immobilized on the ELISA plate at 500 ng/mL; also called human IL-23R-Fc fusion protein; not shown: Fc region of mouse immunoglobulin (IgG2a) as encoded by the vector pFUSE-mIgG2A-Fc2 (InvivoGen); limits and any linker r
T1 sequence: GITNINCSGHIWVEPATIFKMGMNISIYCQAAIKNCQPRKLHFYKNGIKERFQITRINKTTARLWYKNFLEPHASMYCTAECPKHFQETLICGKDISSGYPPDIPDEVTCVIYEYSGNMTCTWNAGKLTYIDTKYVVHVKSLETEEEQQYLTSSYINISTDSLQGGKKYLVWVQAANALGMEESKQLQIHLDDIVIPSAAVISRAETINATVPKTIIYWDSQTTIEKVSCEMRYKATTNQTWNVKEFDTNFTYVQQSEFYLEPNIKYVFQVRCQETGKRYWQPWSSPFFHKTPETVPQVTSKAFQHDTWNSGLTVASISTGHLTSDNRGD


How the values were obtained:
[1] = molecular target: T1, human IL-23R-mouse Fc fusion protein; experiment: antigen ELISA, human IL-23R-Fc immobilized, HRP anti-mouse Ig, chemiluminescence
Description: (§1) The present inventors used an antigen ELISA to measure the antigen-specific binding activity of the antibody. The human or monkey IL-23R-Fc fusion protein was immobilized onto a Maxisorp 384-well plate (Nunc, Inc.) at a concentration of 500 ng/mL. A blocking agent (Blocking One; Nacalai Tesque, Inc.) was added thereto and allowed to stand at room temperature for 1 hour, followed by washing twice with a wash buffer [TPBS: a phosphate buffered saline (PBS) containing 0.05% Tween-20], and the purified antibody samples were suitably serially diluted and added thereto. Incubation was performed at room temperature for 1 hour, followed by washing four times with TPBS, and HRP-rabbit anti-mouse Ig antibody (DAKO) which was 2000-fold diluted with a dilution buffer was added. Incubation was performed at room temperature for 1 hour, followed by washing four times with a wash buffer. A BM-chemiluminescence ELISA substrate (POD) (Roche Diagnostics), which is a reagent for detecting chemical luminescence, was added, and the amount of chemiluminescence was measured with an EnVision counter (Perkin Elmer). Each antibody was tested in duplicate and the EC50 was analyzed by curve fitting. In this test, a fusion antibody obtained by replacing the Fc region of the known humanized anti-human IL-23R antibody hum20D7 (patent document 1) with the mouse Fc region (hereinafter referred to as hum20D7-mFc) was used as a comparative antibody. Also, the reason why the hum20D7 was fused with the mouse Fc region to prepare a fusion protein was to use anti-mouse Ig antibody as secondary antibody, and the mouse Fc region could be recognized by the anti-mouse Ig antibody, thereby rendering it possible to measure activity.

[2] = molecular target: T2, monkey IL-23R-mouse Fc fusion protein (monkey; mouse); experiment: antigen ELISA, monkey IL-23R-Fc immobilized, HRP anti-mouse Ig, chemiluminescence
T2 construct: extracellular domain; also called monkey IL-23R-Fc fusion protein
Description: as §1

EC50 [1] [µg/mL] | EC50 [2] [µg/mL] | Binder
0.023 | 0.028 | 32-36 (chimeric) (antibody, V domains shown) VH: QVQMVQSGAEVKRPGASVKVSCKVSGYTLNELGIHWVRQAPGKGLEWMGGFDPEHGKIIYAQRFQGRLTMPEDTSTDTAYMELSSLTSEDTAVYYCATVAAPLDYWGQGTLVTVSS VL: not shown
0.017 | 0.013 | 34-58 (chimeric) (antibody, V domains shown) VH: QVHLVQSGTEVRKPGASVKVSCKVSGYTLNELAIHWVRQAPGKGLEWMGGFDPEHGEIIYAQRFQGRITLPEDTSTDTAYMDLVNLRSEDTAVYFCTTEAAPFDYWGQGSLVIVSS VL: DIQMTQSPSTLSASVGDRVTITCRASQSLSNWLAWYQQKPGKAPKLLIYKASSLESGVPSRFSGSGSGTDFTLTISGLQPDDFATYYCQQYDIYPRTFGQGTKVEIKR

— patent US20140275490A1 (Astellas, published 2014)
